Ends that are not written are not given here.

Assay [1] concerns the target JPr-CGRP receptor (rat CGRP receptor, JPr-CGRP-R) (rat) (UniProt O89039). The assay is described as follows: Radioligand binding inhibition; unlabelled CGRP against 50 pM 125I-CGRP on stably transfected NIH/3T3 cells.
Assay [2] has as its target Skb-CGRP receptor (previously reported human CGRP type 1 receptor, Skb-CGRP-R) (human) (UniProt Q16602). The description is as above.
The target of assay [3] is T1, JPr-CGRP receptor (Rattus norvegicus, UniProt O89039).
T1 construct: expressed in transfected cells; pCDL-Srα vector)
The assay is described as follows: Adenylate Cyclase Stimulation assay (cAMP), NIH/3T3 cells stably expressing JPr-CGRP receptor. The conditions noted are these: assay not specified. It is filed as cell-based. The procedure:
The cells were washed with 1 ml of a nutrient deficient DMEM solution (Gibco-BRL, Gaithersburg, Md.) to remove excess radioisotope and incubated for 10 minutes (37° Celsius). […] Peptide was added in 5 μL aliquots to 21 of the 24 wells with three receiving no peptide to serve as a baseline for stimulation. The remaining 21 wells were incubated at 37° Celsius with increasing concentrations of the indicated peptide and the response was measured.

Assay [4] concerns vector control transfected HEK 293 cells. The note with it: cited from earlier work.

T1 sequence (O89039 whole entry): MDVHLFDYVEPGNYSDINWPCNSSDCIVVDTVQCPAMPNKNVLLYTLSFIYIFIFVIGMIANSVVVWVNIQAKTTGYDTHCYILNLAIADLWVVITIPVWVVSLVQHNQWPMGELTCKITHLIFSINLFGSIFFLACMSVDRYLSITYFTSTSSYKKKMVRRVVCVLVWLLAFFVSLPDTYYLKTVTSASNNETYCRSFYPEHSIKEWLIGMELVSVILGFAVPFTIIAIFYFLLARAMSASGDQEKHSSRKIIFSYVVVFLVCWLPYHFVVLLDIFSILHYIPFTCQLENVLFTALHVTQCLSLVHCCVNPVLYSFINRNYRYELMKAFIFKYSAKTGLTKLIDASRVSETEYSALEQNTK
Sequence of Skb-CGRP receptor (previously reported human CGRP type 1 receptor, Skb-CGRP-R) (human) (Q16602 23-461): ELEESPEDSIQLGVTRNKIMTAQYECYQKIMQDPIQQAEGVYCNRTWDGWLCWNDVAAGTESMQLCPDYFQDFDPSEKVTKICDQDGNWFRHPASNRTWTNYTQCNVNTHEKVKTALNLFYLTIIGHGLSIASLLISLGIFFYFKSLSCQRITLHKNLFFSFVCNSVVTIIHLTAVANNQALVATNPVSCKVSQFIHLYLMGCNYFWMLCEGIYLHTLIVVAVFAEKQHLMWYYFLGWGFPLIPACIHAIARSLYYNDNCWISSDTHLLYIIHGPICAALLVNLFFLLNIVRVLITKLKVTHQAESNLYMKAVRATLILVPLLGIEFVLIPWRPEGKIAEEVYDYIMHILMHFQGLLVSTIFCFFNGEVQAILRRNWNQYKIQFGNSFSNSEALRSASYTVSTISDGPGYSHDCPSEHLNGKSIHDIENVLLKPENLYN
Sequence of JPr-CGRP receptor (rat CGRP receptor, JPr-CGRP-R) (rat) (O89039 whole entry): as the sequence (O89039 whole entry) above

As a reminder, the IC50 is the concentration needed to halve the response being measured. A high value points to lower potency. Consider Calcitonin Gene Related Peptide (CGRP), for which the IC50 was 0.0398 nM in assay [1] and 0.501 nM in assay [2].

For “Amylin: peptide related to CGRP, tested on the receptor (KCNTATCATQRLANFLVHSSNNFGAILSSTNVGSNTY; not fully specified (C-terminus, bridges); cysteine pairing not given here; UniProt P10997 34-70, looked up)”, in assay [3], the “response of the JPr-CGRP receptor to related peptides” value (from here on “response of the JPr-CGRP receptor”) was “shows response”.

Calcitonin: the “response of the JPr-CGRP receptor” value in assay [3] is “shows response”.

As to “human Calcitonin: human Calcitonin, has cross reactivity with the CGRP receptor (CGNLSTCMLGTYTQDFNKFHTFPQTAIGVGAP; not fully specified (C-terminus, bridges); ends and bridges not checked; UniProt P01258 85-116, looked up)”, the “cAMP accumulation as % of the maximum cAMP induced by CGRP in Skb-CGRP-R transfected cells” value in assay [4] is reported as 75%.

In the case of Adrenomedullin: peptide related to CGRP, in assay [3], the “response of the JPr-CGRP receptor” value is “shows response”.

Values taken from patent US20040110170A1, “Cloning and characterization of calcitonin gene related peptide receptors” (priority 2002, published 2004).
